Experimental data: patent US20180305431A1 (Novo Nordisk, published 2018)

Legend:
[1] = target: membrane-associated human IR-A (plasma membranes of BHK cells stably transfected with the human IR-A insert) (human) (UniProt P06213); experiment: SPA competition vs [125I-A14Y]-human insulin, membrane hIR-A, 0.1% HSA
[2] = target: insulin receptor on primary rat adipocytes (rat) (UniProt P15127); experiment: cell-based or functional assay
[3] = target: membrane-associated human IR-B (plasma membranes of BHK cells stably transfected with the human IR-B insert) (human) (UniProt P06213); experiment: SPA competition vs [125I-A14Y]-human insulin, membrane hIR-B, 0.1% HSA
[4] = target: T1, solubilised human IR-A (semipurified by wheat germ agglutinin chromatography from baby hamster kidney (BHK) … (human, UniProt P06213-2 28-1370)); experiment: SPA competition vs [125I-A14Y]-human insulin, solubilised hIR-A, 0% HSA
T1 construct: mature; Detergent-solubilised holoreceptor captured by anti-IR mouse antibody 83-7 on SPA beads; the precursor is processed into alpha and beta chains; also called hIRA; human insulin receptor (IR), A isoform

[5] = target: T2, membrane-associated human IGF-1R (plasma membranes of BHK cells stably transfected with the human IGF-IR … (human, UniProt P08069 31-1367)); experiment: SPA competition vs [125I-Tyr31]-human IGF-1, membrane hIGF-1R, 0.1% HSA
T2 construct: whole, on cells; Receptor in purified plasma membranes, not on intact cells; also called hIGF1R; insulin-like growth factor 1 receptor
Method: The relative binding affinity for either of the membrane-associated human IR-A, IR-B or IGF-1R is determined by competition binding in a SPA setup. IR assays are performed in duplicate in 96-well OptiPlates (Perkin-Elmer Life Sciences). […] Assays are terminated by centrifugation of the plate at 2000 rpm for 2 minutes and bound radioactivity quantified by counting on a TopCount NXT (Perkin-Elmer Life Sciences).
IGF-1R assays are conducted essentially as for the IR binding assays except that membrane-associated IGF-1R and 50 pM [¹²5-Tyr31]-human IGF-1 were employed.

[6] = target: T1, solubilised human IR-A (semipurified by …); experiment: SPA competition vs [125I-A14Y]-human insulin, solubilised hIR-A, 1.5% HSA

T2 sequence (P08069 31-1367): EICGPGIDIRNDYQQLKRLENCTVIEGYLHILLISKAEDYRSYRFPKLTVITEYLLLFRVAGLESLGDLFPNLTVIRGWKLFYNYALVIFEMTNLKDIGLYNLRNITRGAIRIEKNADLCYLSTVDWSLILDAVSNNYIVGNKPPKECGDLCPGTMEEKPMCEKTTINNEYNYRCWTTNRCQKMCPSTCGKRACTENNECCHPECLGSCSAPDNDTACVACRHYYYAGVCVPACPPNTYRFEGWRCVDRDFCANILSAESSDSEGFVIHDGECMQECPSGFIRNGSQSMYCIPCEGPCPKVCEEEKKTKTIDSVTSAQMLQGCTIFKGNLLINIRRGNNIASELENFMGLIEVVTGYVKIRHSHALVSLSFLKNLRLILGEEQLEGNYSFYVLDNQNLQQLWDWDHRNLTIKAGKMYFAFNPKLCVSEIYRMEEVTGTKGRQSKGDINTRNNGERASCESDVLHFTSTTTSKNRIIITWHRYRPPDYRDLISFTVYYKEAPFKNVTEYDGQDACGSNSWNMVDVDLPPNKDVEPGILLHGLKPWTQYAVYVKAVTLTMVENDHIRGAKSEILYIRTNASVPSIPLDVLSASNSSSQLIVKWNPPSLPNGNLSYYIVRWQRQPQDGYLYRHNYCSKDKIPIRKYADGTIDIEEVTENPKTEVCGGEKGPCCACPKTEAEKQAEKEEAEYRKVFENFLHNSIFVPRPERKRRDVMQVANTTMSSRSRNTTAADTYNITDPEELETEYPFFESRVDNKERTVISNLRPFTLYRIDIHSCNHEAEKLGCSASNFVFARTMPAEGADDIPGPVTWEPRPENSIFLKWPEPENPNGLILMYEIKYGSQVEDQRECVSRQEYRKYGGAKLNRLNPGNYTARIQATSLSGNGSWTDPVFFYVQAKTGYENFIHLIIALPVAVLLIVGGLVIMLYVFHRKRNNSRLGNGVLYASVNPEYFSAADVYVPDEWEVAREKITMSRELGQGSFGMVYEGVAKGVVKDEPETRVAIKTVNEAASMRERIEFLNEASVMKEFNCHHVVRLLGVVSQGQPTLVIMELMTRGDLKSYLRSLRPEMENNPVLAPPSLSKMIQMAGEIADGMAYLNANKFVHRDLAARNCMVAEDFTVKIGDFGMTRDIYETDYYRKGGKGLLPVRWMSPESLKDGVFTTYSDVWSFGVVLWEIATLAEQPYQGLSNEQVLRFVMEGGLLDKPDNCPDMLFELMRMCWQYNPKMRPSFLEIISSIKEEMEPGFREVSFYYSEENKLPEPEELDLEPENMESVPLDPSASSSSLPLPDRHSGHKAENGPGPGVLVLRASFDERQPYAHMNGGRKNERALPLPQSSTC
T1 sequence (P06213 other isoform, or with tags, fused parts or gaps limits assumed): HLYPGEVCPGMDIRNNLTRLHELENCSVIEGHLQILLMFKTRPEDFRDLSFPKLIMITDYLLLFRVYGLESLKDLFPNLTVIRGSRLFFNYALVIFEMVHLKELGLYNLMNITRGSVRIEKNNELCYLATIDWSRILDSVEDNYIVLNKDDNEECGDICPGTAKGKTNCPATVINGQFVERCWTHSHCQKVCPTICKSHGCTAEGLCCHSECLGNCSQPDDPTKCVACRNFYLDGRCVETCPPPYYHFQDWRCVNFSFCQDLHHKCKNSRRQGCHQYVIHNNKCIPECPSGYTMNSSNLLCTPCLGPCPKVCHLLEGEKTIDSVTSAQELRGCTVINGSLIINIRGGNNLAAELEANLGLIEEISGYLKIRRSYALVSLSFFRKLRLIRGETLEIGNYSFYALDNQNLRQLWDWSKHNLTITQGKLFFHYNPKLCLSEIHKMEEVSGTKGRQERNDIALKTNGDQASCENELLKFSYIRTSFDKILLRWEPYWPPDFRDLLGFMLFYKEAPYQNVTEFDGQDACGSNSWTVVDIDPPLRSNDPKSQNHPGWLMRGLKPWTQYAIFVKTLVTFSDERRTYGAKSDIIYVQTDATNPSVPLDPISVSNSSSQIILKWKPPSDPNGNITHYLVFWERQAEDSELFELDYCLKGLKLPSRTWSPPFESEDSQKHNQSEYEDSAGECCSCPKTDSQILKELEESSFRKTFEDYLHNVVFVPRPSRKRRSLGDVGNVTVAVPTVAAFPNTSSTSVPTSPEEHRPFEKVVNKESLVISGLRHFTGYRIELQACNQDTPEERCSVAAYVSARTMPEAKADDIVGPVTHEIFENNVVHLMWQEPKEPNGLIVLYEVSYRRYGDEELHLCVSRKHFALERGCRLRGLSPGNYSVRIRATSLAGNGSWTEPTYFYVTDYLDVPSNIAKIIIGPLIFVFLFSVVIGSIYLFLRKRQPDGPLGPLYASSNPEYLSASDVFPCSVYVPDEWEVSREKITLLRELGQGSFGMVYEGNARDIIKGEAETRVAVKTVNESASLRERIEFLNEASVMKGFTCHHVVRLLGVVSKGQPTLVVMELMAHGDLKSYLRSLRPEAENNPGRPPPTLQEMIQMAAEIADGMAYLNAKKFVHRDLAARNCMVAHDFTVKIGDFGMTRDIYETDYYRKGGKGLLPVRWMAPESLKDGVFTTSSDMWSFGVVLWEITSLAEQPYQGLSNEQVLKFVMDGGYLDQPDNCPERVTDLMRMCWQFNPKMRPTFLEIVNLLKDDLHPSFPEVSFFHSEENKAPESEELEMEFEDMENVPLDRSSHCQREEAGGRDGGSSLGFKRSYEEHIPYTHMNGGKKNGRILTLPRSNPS
Sequence of insulin receptor on primary rat adipocytes (rat) (P15127 27-1383): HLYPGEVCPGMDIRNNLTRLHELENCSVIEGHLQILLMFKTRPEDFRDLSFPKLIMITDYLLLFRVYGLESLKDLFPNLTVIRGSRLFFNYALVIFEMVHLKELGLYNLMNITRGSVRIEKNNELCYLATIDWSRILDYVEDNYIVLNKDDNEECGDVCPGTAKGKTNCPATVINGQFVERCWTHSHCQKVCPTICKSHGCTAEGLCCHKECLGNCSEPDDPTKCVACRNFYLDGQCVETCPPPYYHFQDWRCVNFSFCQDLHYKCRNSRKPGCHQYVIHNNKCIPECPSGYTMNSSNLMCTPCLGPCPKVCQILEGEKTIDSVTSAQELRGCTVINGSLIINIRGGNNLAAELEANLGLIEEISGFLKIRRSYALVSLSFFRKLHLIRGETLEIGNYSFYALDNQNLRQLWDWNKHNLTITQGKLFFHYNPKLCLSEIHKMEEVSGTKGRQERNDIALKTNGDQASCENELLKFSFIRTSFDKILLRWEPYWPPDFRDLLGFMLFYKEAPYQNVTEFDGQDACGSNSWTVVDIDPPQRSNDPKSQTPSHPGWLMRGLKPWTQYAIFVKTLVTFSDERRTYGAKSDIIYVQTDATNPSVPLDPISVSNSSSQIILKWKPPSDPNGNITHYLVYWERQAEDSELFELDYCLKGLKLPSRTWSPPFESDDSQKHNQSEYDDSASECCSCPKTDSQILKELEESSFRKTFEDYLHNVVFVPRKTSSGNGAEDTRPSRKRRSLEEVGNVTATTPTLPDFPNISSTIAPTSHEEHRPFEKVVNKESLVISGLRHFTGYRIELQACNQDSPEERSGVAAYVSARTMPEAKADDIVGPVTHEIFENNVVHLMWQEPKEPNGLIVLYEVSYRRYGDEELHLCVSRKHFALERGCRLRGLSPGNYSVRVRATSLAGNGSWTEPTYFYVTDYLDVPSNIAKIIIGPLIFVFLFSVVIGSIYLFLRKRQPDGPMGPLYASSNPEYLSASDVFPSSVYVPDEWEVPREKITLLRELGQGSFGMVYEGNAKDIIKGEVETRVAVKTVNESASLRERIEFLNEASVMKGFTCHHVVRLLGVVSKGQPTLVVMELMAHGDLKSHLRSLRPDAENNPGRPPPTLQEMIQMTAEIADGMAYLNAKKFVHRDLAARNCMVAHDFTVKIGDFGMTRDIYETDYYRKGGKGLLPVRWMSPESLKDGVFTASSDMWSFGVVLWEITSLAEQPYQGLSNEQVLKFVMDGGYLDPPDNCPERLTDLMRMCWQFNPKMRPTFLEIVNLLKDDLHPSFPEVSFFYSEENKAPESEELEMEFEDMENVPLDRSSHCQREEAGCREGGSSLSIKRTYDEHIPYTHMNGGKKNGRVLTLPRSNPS

Row | relative binding affinity (% rel to HI) [1] | Lipogenesis 1% HSA (% rel to HI) [2] | relative binding affinity (% rel to HI) [3] | relative binding affinity (% rel to HI) [4] | relative binding affinity (% rel to HI) [5] | relative binding affinity (% rel to HI) [6] | Molecule
1 | 71.1 % rel to HI | 3.2 % rel to HI | 72.1 % rel to HI | – | – | – | A22K(N(eps)Hexadecanedioyl-gGlu-2xOEG), B3E, B27E, B29R, desB30 human insulin (ligand)
2 | 29.1 % rel to HI | – | 46.8 % rel to HI | – | – | – | A22K(N(eps)hexadecanedioyl-4xgGlu), B3E, B26E, B29R, desB30 human insulin (ligand)
3 | 29.1 % rel to HI | 4.4 % rel to HI | 35.7 % rel to HI | – | – | – | A22K(N(eps)hexadecanedioyl-4xgGlu), B3E, B27E, B28E, B29R, desB30 human insulin (ligand)
4 | 25.7 % rel to HI | 1.1 % rel to HI | 55.3 % rel to HI | – | – | – | A22K(N(eps)hexadecanedioyl-4xgGlu), B3E, B27E, B29R, desB30 human insulin (ligand)
5 | 27.5 % rel to HI | 3.7 % rel to HI | 32.1 % rel to HI | – | – | – | A22K(N(eps)hexadecanedioyl-4xgGlu), B3E, B27P, B28E, B29R, desB30 human insulin (ligand)
6 | 20.9 % rel to HI | 3.8 % rel to HI | 47.8 % rel to HI | – | – | – | A22K(N(eps)hexadecanedioyl-4xgGlu), B3E, B28D, B29R, desB30 human insulin (ligand)
7 | 34.4 % rel to HI | – | 40.2 % rel to HI | – | – | – | A22K(N(eps)hexadecanedioyl-gGlu-2xOEG), B3E, B26E, B29R, desB30 human insulin (ligand)
8 | 30.9 % rel to HI | 4.4 % rel to HI | 38.2 % rel to HI | – | – | – | A22K(N(eps)hexadecanedioyl-gGlu-2xOEG), B3E, B27E, B28E, B29R, desB30 human insulin (ligand)
9 | 31.2 % rel to HI | 3.3 % rel to HI | 29.4 % rel to HI | – | – | – | A22K(N(eps)hexadecanedioyl-gGlu-2xOEG), B3E, B27P, B28E, B29R, desB30 human insulin (ligand)
10 | 32.1 % rel to HI | 2.6 % rel to HI | 40.7 % rel to HI | – | – | – | A22K(N(eps)hexadecanedioyl-gGlu-2xOEG), B3E, B28D, B29R, desB30 human insulin (ligand)
11 | 48.3 % rel to HI | 18.2 % rel to HI | 82.4 % rel to HI | – | – | – | A22K(N(eps)tetradecanedioyl-4xgGlu), B3E, B26E, B27E, B28E, B29R, desB30 human insulin (ligand)
12 | 57.2 % rel to HI | 29.6 % rel to HI | 93.3 % rel to HI | – | – | – | A22K(N(eps)tetradecanedioyl-4xgGlu), B3E, B26E, B27E, B28R, desB29, desB30 human insulin (ligand)
13 | 63.2 % rel to HI | 78.8 % rel to HI | 90.7 % rel to HI | – | – | – | A22K(N(eps)tetradecanedioyl-4xgGlu), B3E, B26E, B27P, B28R, desB29, desB30 human insulin (ligand)
14 | 46.4 % rel to HI | 17.9 % rel to HI | 76.2 % rel to HI | – | – | – | A22K(N(eps)tetradecanedioyl-4xgGlu), B3E, B26E, B28E, B29P, B30R human insulin (ligand)
15 | 68 % rel to HI | 20.5 % rel to HI | 111 % rel to HI | – | – | – | A22K(N(eps)tetradecanedioyl-4xgGlu), B3E, B26E, B28E, B29R, desB30 human insulin (ligand)
16 | 66.9 % rel to HI | 31.3 % rel to HI | 105 % rel to HI | – | – | – | A22K(N(eps)tetradecanedioyl-4xgGlu), B3E, B26E, B29R, desB30 human insulin (ligand)

Row | relative binding affinity (% rel to HI) [1] | Lipogenesis 1% HSA (% rel to HI) [2] | relative binding affinity (% rel to HI) [3] | relative binding affinity (% rel to HI) [4] | relative binding affinity (% rel to HI) [5] | relative binding affinity (% rel to HI) [6] | Molecule
17 | 45.1 % rel to HI | 23.7 % rel to HI | 70 % rel to HI | – | – | – | A22K(N(eps)tetradecanedioyl-4xgGlu), B3E, B27E, B28E, B29P, B30R human insulin (ligand)
18 | 74.9 % rel to HI | 27.3 % rel to HI | 157 % rel to HI | – | – | – | A22K(N(eps)tetradecanedioyl-4xgGlu), B3E, B27E, B28E, B29R, desB30 human insulin (ligand)
19 | 40.6 % rel to HI | 29.9 % rel to HI | 81.7 % rel to HI | – | – | – | A22K(N(eps)tetradecanedioyl-4xgGlu), B3E, B27E, B28R, desB29, desB30 human insulin (ligand)
20 | 61.5 % rel to HI | 11.1 % rel to HI | 119 % rel to HI | – | – | – | A22K(N(eps)tetradecanedioyl-4xgGlu), B3E, B27E, B29R, desB30 human insulin (ligand)
21 | 64.3 % rel to HI | 27 % rel to HI | 77.6 % rel to HI | – | – | – | A22K(N(eps)tetradecanedioyl-4xgGlu), B3E, B27P, B28E, B29R, desB30 human insulin (ligand)
22 | 64.9 % rel to HI | 26.4 % rel to HI | 93.7 % rel to HI | – | – | – | A22K(N(eps)tetradecanedioyl-4xgGlu), B3E, B28D, B29R, desB30 human insulin (ligand)
23 | 44.6 % rel to HI | 19.5 % rel to HI | 94.5 % rel to HI | – | – | – | A22K(N(eps)tetradecanedioyl-4xgGlu), B3E, B28E, B29P, B30R human insulin (ligand)
24 | 78.5 % rel to HI | 31.2 % rel to HI | 133 % rel to HI | – | – | – | A22K(N(eps)tetradecanedioyl-4xgGlu), B3Q, B26E, B28E, B29R, desB30 human insulin (ligand)
25 | 76.5 % rel to HI | 31.4 % rel to HI | 163 % rel to HI | – | – | – | A22K(N(eps)tetradecanedioyl-4xgGlu), B3Q, B26E, B29R, desB30 human insulin (ligand)
26 | 103 % rel to HI | 23.9 % rel to HI | 159 % rel to HI | – | – | – | A22K(N(eps)tetradecanedioyl-gGlu-2xOEG), B3E, B27E, B28E, B29R, desB30 human insulin (ligand)
27 | 75.6 % rel to HI | 20.3 % rel to HI | 75.9 % rel to HI | – | – | – | A22K(N(eps)tetradecanedioyl-gGlu-2xOEG), B3E, B27P, B28E, B29R, desB30 human insulin (ligand)
28 | 93.9 % rel to HI | 21.3 % rel to HI | 108 % rel to HI | – | – | – | A22K(N(eps)tetradecanedioyl-gGlu-2xOEG), B3E, B28D, B29R, desB30 human insulin (ligand)
29 | 78.5 % rel to HI | 59 % rel to HI | 143 % rel to HI | 229 % rel to HI | 5.7 % rel to HI | 182 % rel to HI | A8R, A22K(N(eps)tetradecanedioyl-4xgGlu), B3E, B26E, B28E, B29R, desB30 human insulin (ligand, not fully specified; Lys A22 acylated on N(eps) with tetradecanedioyl-4xgGlu, Two-chain acylated insulin analogue; also called Ex. No. 23) chain 1: GIVEQCCRSICSLYQLENYCNK chain 2: FVEQHLCGSHLVEALYLVCGERGFFETER
30 | 108 % rel to HI | 70.9 % rel to HI | 174 % rel to HI | 294 % rel to HI | 10.8 % rel to HI | 237 % rel to HI | A8R, A22K(N(eps)tetradecanedioyl-4xgGlu), B3E, B26E, B29R, desB30 human insulin (ligand, not fully specified; Lys A22 acylated on N(eps) with tetradecanedioyl-4xgGlu, Two-chain acylated insulin analogue; also called Ex. No. 15) chain 1: GIVEQCCRSICSLYQLENYCNK chain 2: FVEQHLCGSHLVEALYLVCGERGFFETPR
31 | 16.5 % rel to HI | 3.7 % rel to HI | 23.2 % rel to HI | 114 % rel to HI | 14.3 % rel to HI | 5.4 % rel to HI | A14E, A22K(N(eps)hexadecanedioyl-4xgGlu), B3E, B27E, B28E, B29R, desB30 human insulin (ligand, not fully specified; Lys A22 acylated on N(eps) with hexadecanedioyl-4xgGlu, Two-chain acylated insulin analogue; also called Ex. No. 27) chain 1: GIVEQCCTSICSLEQLENYCNK chain 2: FVEQHLCGSHLVEALYLVCGERGFFYEER
32 | 88.1 % rel to HI | 78.6 % rel to HI | 164 % rel to HI | 274 % rel to HI | 24 % rel to HI | 211 % rel to HI | A8R, A22K(N(eps)tetradecanedioyl-4xgGlu), B3E, B27E, B28E, B29R, desB30 human insulin (ligand, not fully specified; Lys A22 acylated on N(eps) with tetradecanedioyl-4xgGlu, Two-chain acylated insulin analogue; also called Ex. No. 24) chain 1: GIVEQCCRSICSLYQLENYCNK chain 2: FVEQHLCGSHLVEALYLVCGERGFFYEER
